For one series, the target named is KU70/80;DNA-PKcs;TRF2 (human;human;human, UniProt P12956;P13010;P78527;Q15554 1-609;1-732;1-4128;1-542, ||). Kind of series: KU pull-down; TRF2 association with KU mediated by template DNA; Footprinting: 25 mM HEPES pH 7.6, 80 mM KCl, 1.5 mM CaCl2, 1.5 mM MgCl2, 5% glycerol, 50 ug/ml BSA, 2 mM DTT, ice then 37 C (EMSA same buffer, 37 C); pull-down: 20 mM HEPES pH 7.6, 80 mM KCl, 5% glycerol, 0.01% NP-40, 1 mM DTT, 30 C; cryo-EM: 40 mM HEPES pH 7.6, 100 mM NaCl, 3 mM MgCl2, 4 C. The note with it: protein: recombinant;native;recombinant; tags: FLAG (KU70 N-terminal);;dual strep; copies: 1;1;1;2; blunt.

For the next series, the target named is KU70/80;DNA-PKcs (human;human, UniProt P12956;P13010;P78527 1-609;1-732;1-4128, |). Kind of series: KU pull-down; DNA-PKcs associates with KU in a DNA-dependent manner; Footprinting: 25 mM HEPES pH 7.6, 80 mM KCl, 1.5 mM CaCl2, 1.5 mM MgCl2, 5% glycerol, 50 ug/ml BSA, 2 mM DTT, ice then 37 C (EMSA same buffer, 37 C); pull-down: 20 mM HEPES pH 7.6, 80 mM KCl, 5% glycerol, 0.01% NP-40, 1 mM DTT, 30 C; cryo-EM: 40 mM HEPES pH 7.6, 100 mM NaCl, 3 mM MgCl2, 4 C. The note with it: protein: recombinant;native; tags: FLAG (KU70 N-terminal);; copies: 1;1;1; blunt.

B1: PE3/PE4 telomeric duplex (dsDNA)
DNA 1: CGTCTATATTCTATTGTCTCTTAGGGTTAGGGTTAGGGTTAGGGTTAGGGTTAGGGTTAGGGTTAGGGTTAACATCAGTCTCACATAGATTAGCTCACGC
DNA 2: GCGTGAGCTAATCTATGTGAGACTGATGTTAACCCTAACCCTAACCCTAACCCTAACCCTAACCCTAACCCTAACCCTAAGAGACAATAGAATATAGACG
On to B1, for which the binding result with KU70/80;DNA-PKcs;TRF2 and with KU70/80;DNA-PKcs was “binds” throughout.

The values above are taken from paper PMC12221994.
